Assay results taken from patent publication US20120316071A1 (published 2012).

Key:
[1] = molecular target: T1, rHuman IGF-1 sR, CF (R&D Systems Cat#391-GR) (human, UniProt P08069 31-932); test: Multispot ECL (MSD), antigen spotted on plate, Fab 0.01563 uM; blank spot 906
T1 construct: Bought recombinant soluble receptor; also called insulin-like growth factor-1 soluble receptor

[2] = molecular target: T2, rHuman EGF R/Fc Chimera, CF (R&D Systems Cat#344-ER) (human, UniProt P00533 25-645); test: as above
T2 construct: Bought recombinant protein; also called epidermal growth factor receptor (EGF R); Fc part of the bought chimera not given

[3] = molecular target: T3, rHuman Erythropoietin R/Fc Chimera, CF (R&D Systems Cat#963-ER) (human, UniProt P19235 25-250); test: as above
T3 construct: Bought recombinant protein; also called EPO R/Fc; Epo R; Fc part of the bought chimera not given
T3 sequence (looked up): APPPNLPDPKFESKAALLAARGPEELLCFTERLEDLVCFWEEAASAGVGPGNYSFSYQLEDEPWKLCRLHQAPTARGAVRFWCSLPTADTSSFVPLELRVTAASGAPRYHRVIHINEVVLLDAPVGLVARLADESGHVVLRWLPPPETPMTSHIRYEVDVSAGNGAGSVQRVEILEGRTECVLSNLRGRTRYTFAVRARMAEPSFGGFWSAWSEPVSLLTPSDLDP

[4] = molecular target: T1, rHuman IGF-1 sR, CF (R&D Systems …); test: Multispot ECL (MSD), antigen spotted on plate, Fab 0.0625 uM; blank spot 1738
[5] = molecular target: T2, rHuman EGF R/Fc Chimera, CF (R&D …); test: as above
[6] = molecular target: T3, rHuman Erythropoietin R/Fc Chimera, CF …; test: as above
[7] = molecular target: T1, rHuman IGF-1 sR, CF (R&D Systems …); test: Multispot ECL (MSD), antigen spotted on plate, Fab 0.25 uM; blank spot 6344
[8] = molecular target: T2, rHuman EGF R/Fc Chimera, CF (R&D …); test: as above
[9] = molecular target: T3, rHuman Erythropoietin R/Fc Chimera, CF …; test: as above
[10] = molecular target: T1, rHuman IGF-1 sR, CF (R&D Systems …); test: Multispot ECL (MSD), antigen spotted on plate, Fab 0.00391 uM; blank spot 576
[11] = molecular target: T2, rHuman EGF R/Fc Chimera, CF (R&D …); test: as above
[12] = molecular target: T3, rHuman Erythropoietin R/Fc Chimera, CF …; test: as above
[13] = molecular target: T4, Recombinant Human DLL4 (R&D Systems Cat#1506-D4/CF) (human, UniProt Q9NR61 27-524); test: ECL multispot (MSD) assay, antigen spotted on plate, 20 nM Fab;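 also: purified Fab bound to plate-spotted antigen for 1 h at 20 °C, labelled detection antibody added, ratio of antigen ECL signal to same-well blank, ratio ≥4 counted as binder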
T4 construct: Bought recombinant protein; also called delta-like protein 4; rHuman DLL4

[14] = molecular target: T5, rHuman Erythropoietin R/Fc Chimera, CF (R&D Systems Cat#963-ER) (human, UniProt P19235 25-250); test: as above
T5 construct: Bought recombinant protein; also called EPO R; EPO R/Fc; Fc part of the bought chimera not given
T5 sequence (looked up): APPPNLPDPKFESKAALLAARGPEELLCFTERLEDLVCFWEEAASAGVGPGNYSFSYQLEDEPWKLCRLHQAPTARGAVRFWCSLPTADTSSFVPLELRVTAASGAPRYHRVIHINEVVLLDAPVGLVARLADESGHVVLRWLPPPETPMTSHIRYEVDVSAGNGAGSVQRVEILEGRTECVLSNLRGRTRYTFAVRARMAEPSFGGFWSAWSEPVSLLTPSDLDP

[15] = molecular target: T6, rHuman ErbB2/Fc Chimera, CF (R&D Systems Cat#1129-ER) (human, UniProt P04626 23-652); test: as above
T6 construct: Bought recombinant protein; also called human epidermal growth factor 2 receptor; Fc part of the bought chimera not given

[16] = molecular target: T7, rHuman EGF R/Fc Chimera, CF (R&D Systems Cat#344-ER) (human, UniProt P00533 25-645); test: as above
T7 construct: Bought recombinant protein; also called epidermal growth factor receptor; Fc part of the bought chimera not given

[17] = molecular target: T8, rHuman Notch-1/Fc Chimera, CF (R&D Systems Cat#3647-TK) (human, UniProt P46531 19-526); test: as above
T8 construct: Bought recombinant protein; Fc part of the bought chimera not given

[18] = molecular target: T9, rHuman P-Cadherin/Fc Chimera, CF (R&D Systems Cat#861-PC) (human, UniProt P22223 108-654); test: as above
T9 construct: Bought recombinant protein; Fc part of the bought chimera not given

[19] = molecular target: T10, rHuman HGF R/c-MET/Fc Chimera, CF (R&D Systems Cat#358-MT/CF) (human, UniProt P08581 25-932); test: as above
T10 construct: Bought recombinant protein; also called HGF R/Fc; hepatocyte growth factor receptor; Fc part of the bought chimera not given
T10 sequence (P08581 25-932, change not shown): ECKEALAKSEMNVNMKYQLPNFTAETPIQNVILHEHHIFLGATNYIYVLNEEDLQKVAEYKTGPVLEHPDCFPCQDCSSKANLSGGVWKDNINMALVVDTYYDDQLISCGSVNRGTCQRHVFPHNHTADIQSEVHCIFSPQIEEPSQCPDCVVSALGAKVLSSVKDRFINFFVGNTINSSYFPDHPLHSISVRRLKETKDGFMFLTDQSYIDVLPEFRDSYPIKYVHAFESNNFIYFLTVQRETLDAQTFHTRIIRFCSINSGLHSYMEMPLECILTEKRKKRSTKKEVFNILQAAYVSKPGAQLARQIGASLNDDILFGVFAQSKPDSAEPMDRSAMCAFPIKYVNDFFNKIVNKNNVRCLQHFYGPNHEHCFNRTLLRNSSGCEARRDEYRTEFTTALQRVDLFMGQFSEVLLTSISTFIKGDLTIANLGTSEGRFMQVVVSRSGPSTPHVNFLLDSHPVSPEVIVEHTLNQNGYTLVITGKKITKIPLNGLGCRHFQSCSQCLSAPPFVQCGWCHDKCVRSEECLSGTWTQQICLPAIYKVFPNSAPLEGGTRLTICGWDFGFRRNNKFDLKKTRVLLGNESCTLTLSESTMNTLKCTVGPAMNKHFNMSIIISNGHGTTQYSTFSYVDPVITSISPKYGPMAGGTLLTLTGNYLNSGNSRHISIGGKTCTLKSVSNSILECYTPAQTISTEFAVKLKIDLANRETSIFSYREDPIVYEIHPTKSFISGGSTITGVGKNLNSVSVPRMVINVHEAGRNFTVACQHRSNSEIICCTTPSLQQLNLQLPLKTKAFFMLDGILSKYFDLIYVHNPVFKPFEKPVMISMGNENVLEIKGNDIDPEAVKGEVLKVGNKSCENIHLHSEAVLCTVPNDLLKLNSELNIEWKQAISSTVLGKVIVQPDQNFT

[20] = molecular target: T11, rHuman CD44/Fc Chimera, CF (R&D Systems Cat#3660-CD) (human, UniProt P16070 21-220); test: as above
T11 construct: Bought recombinant protein; Fc part of the bought chimera not given

[21] = molecular target: T12, rHuman IGF-1 sR, CF (R&D Systems Cat#391-GR) (human, UniProt P08069 31-932); test: as above
T12 construct: Bought soluble receptor; also called insulin-like growth factor-1 soluble receptor

B1: Fab VH1-46_IGHD2-15*01_IGHJ2*01 & L2_IGKJ1*01 (Fab, V domains shown)
VH: QVQLVQSGAEVKKPGASVKVSCKASGYTFTSYYMHWVRQAPGQGLEWMGIINPSGGSTSYAQKFQGRVTMTRDTSTSTVYMELSSLRSEDTAVYYCAREGYCSGGSCYSYWYFDLWGRGTLVTVSS
VL: not shown
notes: Germline library Fab made in E. coli; VH was cloned into Plasmid A (heavy chain constant region CH1, His6 and Flag tags) and the kappa VL into Plasmid C (kappa CL)
For B1, the ECL signal [1] was 1740, the ECL signal [2] was 70800 and the ECL signal [3] was 11300. For the same binder, the ECL signal [4] was 3150, the ECL signal [5] was 94800 and the ECL signal [6] was 21100. The ECL signal [7] was 11000, the ECL signal [8] was 117000 and the ECL signal [9] was 49200. It also gave an ECL signal [10] of 822, an ECL signal [11] of 35900 and an ECL signal [12] of 5020.

B2: Fab VH3-23_IGHD2-21*01>3_IGHJ6*01 H100E/S108P/Y113G Y59A & V2-13_IGLJ2*01 (Fab, V domains shown)
VH: EVQLLESGGGLVQPGGSLRLSCAASGFTFSSYAMSWVRQAPGKGLEWVSSISGSGGSTAYADSVKGRFTISRDNSKNTLYLQMNSLRAEDTAVYYCAKEEIVVVIAIPYYYYGYGMDVWGQGTLVTVSS
VL: SSELTQDPAVSVALGQTVRITCQGDSLRSYYASWYQQKPGQAPVLVIYGKNNRPSGIPDRFSGSSSGNTASLTITGAQAEDEADYYCNSRDSSGNHLVVFGGGTKLTVL
notes: Tested as a Fab made in E. coli; also called EPG Y59A
With B2 the “ECL signal/blank ratio (read-out not given)” value [13] was 2.8, the “ECL signal/blank ratio (read-out not given)” value [14] was 2.5 and the “ECL signal/blank ratio (read-out not given)” value [15] was 1.6. The “ECL signal/blank ratio (read-out not given)” value [16] was 1.4, the “ECL signal/blank ratio (read-out not given)” value [17] was 2.1 and the “ECL signal/blank ratio (read-out not given)” value [18] was 2.4. The “ECL signal/blank ratio (read-out not given)” value [19] was 3.3, the “ECL signal/blank ratio (read-out not given)” value [20] was 1.4 and the “ECL signal/blank ratio (read-out not given)” value [21] was 1.3.
